Measured values reported in patent US9879306B2, “Luciferase biosensors for cAMP” (PROMEGA CORPORATION, priority 2008, dated 2018).
Changes are numbered by the printed parent chain. Names may count otherwise.

B1: 16A2: 7A1 biosensor with F518L in Luc2.0; SEQ ID NO:60, 61 (protein)
chain: MPGAVGKVVPFFEAKVVDLDTGKTLGVNQRGELCVRGPMIMSGYVNNPEATNALIDKDGWLHSGDIAYWDEDEHFFIVDRLKSLIKYKGYQVAPAELESILLQHPNIFDAGVAGLPDDDAGELPAAVVVLEHGKTMTEKEIVDYVASQVTTAKKLRGGVVLVDEVPKGLTGKLDARKIREILIKAKKGSNWDSGCSREGMYESFIESLPFLKSLEFSARLKVVDVIGTKVYNDGEQIIAQGDSADSFFIIESGEVKITMKRKGKSEVEENGAVEIARCSRGQYFGELALVTNKPRAASAHAIGTVKCLAMDVQAFERLLGPCMEIMKRNIATYEEQLVALFGTNMDIVAKNIKKGPAPFYPLEDGTAGEQLHKAMKRYALVPGTIAFTDAHIEVDITYAEYFEMSVRLAEAMKRYGLNTNHRIVVCSENSLQFFMPVLGALFIGVAVAPANDIYNERELLNSMGISQPTVVFVSKKGLQKILNVQKKLPIIQKIIIMDSKTDYQGFQSMYTFVTSHLPPGFNEYDFVPESFDRDKTIALIMNSSGSTGLPKGVALPHRTACVRFSHARDPIFGNQIIPDTAILSVVPFHHGFGMFTTLGYLICGFRVVLMYRFEEELFLRSLQDYKIQSALLVPTLFSFFAKSTLIDKYDLSNLHEIASGGAPLSKEVGEAVAKRFHLPGIRQGYGLTETTSAILITPEGV
B2: GS358: parent cAMP biosensor Met-(FF luc 359-544)-GSSGGSGGSGGG-(RIIβB)-(FFluc4-355)-Val; SEQ ID NO:111, 112 (protein)
chain: B1 chain with L161F, N190S, W191G, D192G, C195G, R197G, E198G, A218E, I250V
B3: 4H7: 7A1 biosensor with F407Y in RIIβb; SEQ ID NO:35, 36 (protein)
chain: B1 chain with L161F, F341Y
B4: 7A1-LQ: 7A1 background with Luc2.0 F518L, K541Q; SEQ ID NO:64, 65 (protein)
chain: B1 chain with K184Q
B5: 7A1-QY: 7A1 background with Luc2.0 K541Q and RIIβB F407Y; SEQ ID NO:109, 110 (protein)
chain: B1 chain with L161F, K184Q, F341Y
B6: 7A1-ILY: 7A1 background with Luc2.0 F369I, F518L and RIIβB F407Y; SEQ ID NO:27, 28 (protein)
chain: B1 chain with F12I, F210I, F248Y, F341Y, F359L
B7: 7A1-ILQY: 7A1 background with Luc2.0 F369I, F518L, K541Q and RIIβB F407Y; SEQ ID NO:31, 32 (protein)
chain: B1 chain with F12I, K184Q, F341Y
B8: 7A1-I: 7A1 background with Luc2.0 F369I; SEQ ID NO:66, 67 (protein)
chain: B1 chain with F12I, L161F
B9: 7A1-IY: 7A1 background with Luc2.0 F369I and RIIβB F407Y; SEQ ID NO:39, 40 (protein)
chain: B1 chain with F12I, L161F, F341Y
B10: 7A1-LY: 7A1 background with Luc2.0 F518L and RIIβB F407Y; SEQ ID NO:25, 26 (protein)
chain: B1 chain with F341Y
B11: 7A1-LQY: 7A1 background with Luc2.0 F518L, K541Q and RIIβB F407Y; SEQ ID NO:58, 59 (protein)
chain: B1 chain with K184Q, F341Y

System: HEK293 cells
Experiment: Luminescence and fold response of biosensor clones in HEK293 cells after isoproterenol or FSK
Format: cell-based
Conditions: 5 minutes after isoproterenol
Method: B. HEK293 cells were transiently transfected with plasmid DNAs encoding various biosensor mutants as above. These biosensor mutants contained the E284A and V316I mutation in the RIIbetaB cAMP binding domain and the modified linker sequence 7A1 (GSNWDSGCSREG; SEQ ID NO: 129). The clones also contained the additional mutations outlined in Table 5. Cells were equilibrated for 2 hours at room temperature with 2 mM EF-Luc. Luminescence was measured 5 and 15 minutes after addition of the isoproterenol and 15 minutes after addition of FSK. Fold response (response; Resp.) was calculated by dividing relative light units (RLUs) from induced cells by the RLUs from uninduced cells. As a control, the biosensor GS358 and 7A1 were included.

In order of falling “Isoproterenol-5 minutes Induced” value:
1. B1  44890 RLU
2. B3  42467 RLU
3. B2  41610 RLU

Same assay, conditions: 15 minutes after FSK

In order of rising “Forskolin (FSK) Induced” value:
1. B3  88555 RLU
2. B1  153670 RLU
3. B2  195335 RLU

Same assay, conditions: 15 minutes after isoproterenol

In order of rising “Isoproterenol-15 minutes Induced” value:
1. B1  141135 RLU
2. B2  184150 RLU
3. B3  207210 RLU

Same assay, conditions: RLU induced / RLU uninduced, 5 minutes after isoproterenol

In order of falling “Isoproterenol-5 minutes Resp” value:
1. B3  86 fold
2. B1  85 fold
3. B2  8 fold

Same assay, conditions: RLU induced / RLU uninduced, 15 minutes after FSK

In order of falling “Forskolin (FSK) Resp” value:
1. B1  76 fold
2. B3  33 fold
3. B2  13 fold

Same assay, conditions: RLU induced / RLU uninduced, 15 minutes after isoproterenol

In order of falling “Isoproterenol-15 minutes Resp” value:
1. B3  78 fold
2. B1  70 fold
3. B2  12 fold

Same assay, conditions: uninduced cells, 5 minutes

In order of rising “Isoproterenol-5 minutes Uninduced” value:
1. B3  493 RLU
2. B1  527 RLU
3. B2  4943 RLU

Same assay, conditions: uninduced cells, 15 minutes

In order of rising “Forskolin (FSK) Uninduced” value:
1. B1  2025 RLU
2. B3  2665 RLU
3. B2  14895 RLU

In order of falling “Isoproterenol-15 minutes Uninduced” value:
1. B2  14895 RLU
2. B3  2665 RLU
3. B1  2025 RLU

Target: T1, dopamine D2 receptor (Homo sapiens, UniProt P14416)
T1 construct: expressed in transfected cells
T1 sequence (P14416 whole entry, species assumed): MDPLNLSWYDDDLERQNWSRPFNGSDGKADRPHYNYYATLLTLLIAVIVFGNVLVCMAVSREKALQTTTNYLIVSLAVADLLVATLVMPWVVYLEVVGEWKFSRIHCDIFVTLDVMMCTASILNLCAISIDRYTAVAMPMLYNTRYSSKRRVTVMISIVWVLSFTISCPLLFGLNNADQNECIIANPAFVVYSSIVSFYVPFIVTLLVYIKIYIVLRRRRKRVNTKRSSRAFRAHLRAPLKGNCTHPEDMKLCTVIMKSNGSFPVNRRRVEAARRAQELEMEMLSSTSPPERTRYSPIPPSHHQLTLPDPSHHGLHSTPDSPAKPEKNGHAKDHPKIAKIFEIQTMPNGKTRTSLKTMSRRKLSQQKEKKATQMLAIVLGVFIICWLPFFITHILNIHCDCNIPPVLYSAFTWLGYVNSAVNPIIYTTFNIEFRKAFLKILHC
Experiment: Forskolin, dopamine and haloperidol responses of biosensor clones in HEK293 cells stably expressing the dopamine D2 receptor
Format: cell-based
Conditions: 3 μM FSK + 0.3 μM dopamine, 10 minutes
Text: To measure changes in the intracellular concentration of cAMP, HEK293 cells are transiently transfected with mutant cAMP biosensors followed by treatment with compounds known to increase or decrease the intracellular cAMP concentration through GPCR activation of Gs- or Gi-coupled receptors, respectively.
HEK293 cells stably expressing the dopamine D2 receptor were transiently transfected with the mutant cAMP biosensors from Example VIIB. Cells were also transfected with either 7A1 (Example III) or GS358 (parent biosensor) as controls. Cells were equilibrated for 2 hours at room temperature using 2 mM EF-luc. Antagonist assay wells were pre-treated for 10-15 minutes at room temperature with 10 μM Haloperidol (Halo). Next, the following reagents were added to their respective wells: media alone to “untreated” samples; 3 μM forskolin (FSK) to “forskolin-treated” samples; 3 μM FSK+0.3 μM dopamine to “agonist-treated” samples; and 3 μM FSK+0.3 μM dopamine to the aforementioned wells pre-treated with Halo. The cells were then incubated at room temperature for 10 minutes and luminescence was measured. Fold response for FSK was calculated by dividing the RLU from “forskolin-treated” cells by the RLU from the “untreated” cells. Fold response for dopamine treatment was calculated by dividing the RLU from the “agonist-treated” cells by the RLU from the “forskolin-treated” cells. Fold response for Haloperidol treatment was calculated by dividing the RLU from the cells treated with haloperidol then forskolin plus dopamine by the RLU of cells treated with forskolin plus dopamine alone.

In order of rising “Dopamine Induced” value:
1. B1  95 RLU
2. B3  583 RLU
3. B2  5153 RLU

Same assay, conditions: 3 μM FSK, 10 minutes

In order of rising “Forskolin (FSK) Induced” value:
1. B3  3180 RLU
2. B1  4117 RLU
3. B2  9166 RLU

Same assay, conditions: 10 μM Haloperidol pre-treatment, then 3 μM FSK + 0.3 μM dopamine

In order of rising “Halo Induced” value:
1. B1  223 RLU
2. B3  2778 RLU
3. B2  9218 RLU

Same assay, conditions: RLU agonist-treated / forskolin-treated

In order of falling “Dopamine Response” value:
1. B2  0.56 fold
2. B1  0.33 fold
3. B3  0.18 fold

Same assay, conditions: RLU forskolin-treated / untreated

In order of rising “Forskolin (FSK) Response” value:
1. B2  5 fold
2. B3  14 fold
3. B1  28 fold

Same assay, conditions: RLU haloperidol then FSK + dopamine / FSK + dopamine alone

In order of falling “Halo Response” value:
1. B3  4.8 fold
2. B1  2.3 fold
3. B2  1.9 fold

Same assay, conditions: untreated (media alone), 10 minutes

In order of rising “Forskolin (FSK) Uninduced” value:
1. B1  147 RLU
2. B3  230 RLU
3. B2  1704 RLU

Target: T2, GPR41 (Homo sapiens, UniProt O14843)
T2 sequence (O14843 1-346): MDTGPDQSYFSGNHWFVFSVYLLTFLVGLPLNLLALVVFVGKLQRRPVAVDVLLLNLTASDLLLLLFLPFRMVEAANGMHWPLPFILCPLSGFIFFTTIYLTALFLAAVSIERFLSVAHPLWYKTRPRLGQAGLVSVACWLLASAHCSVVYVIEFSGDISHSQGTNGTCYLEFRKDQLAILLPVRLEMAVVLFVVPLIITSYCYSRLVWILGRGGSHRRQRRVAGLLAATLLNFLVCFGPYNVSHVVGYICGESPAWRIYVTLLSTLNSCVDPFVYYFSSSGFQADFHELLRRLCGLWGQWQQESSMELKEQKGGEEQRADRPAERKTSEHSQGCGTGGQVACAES
Experiment: Sodium proprionate CRC with biosensor variants in HEK293 cells stably expressing GPR41
Format: cell-based
Conditions: with FSK 1 μM
How it was run: (§1)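 Luminescent cAMP readout: EC50 and fold response from a sodium propionate concentration-response, tested ± FSK. Luminescence was read before compound and 30 min after. Cells were HEK293 stably expressing GPR41, carrying a transiently transfected cAMP biosensor variant and preloaded 2 h at room temperature with 5 mM EF-luc in CO2-independent medium plus 10% FBS.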

In order of falling “Fold Response Na proprionate + FSK(1 μM)” value:
1. B5  161.29 fold
2. B10  62.19 fold
3. B6  8.96 fold
4. B9  8.66 fold
5. B7  8.13 fold
6. B4  6.6 fold
7. B8  6.60 fold
8. B1  3.76 fold
9. B3  2.98 fold

For B2, the “Fold Response Na proprionate + FSK(1 μM)” value was 3.19 (n = 7) fold.

Same assay, conditions: without FSK, ratio of induced to uninduced signal

In order of rising “Fold Response Na proprionate” value:
1. B5  1.68 fold
2. B3  1.94 fold
3. B11  1.94 fold
4. B10  2.15 fold
5. B6  2.49 fold
6. B7  2.57 fold
7. B4  2.70 fold
8. B1  2.73 fold
9. B9  2.81 fold
10. B8  3.07 fold

With B2 the “Fold Response Na proprionate” value was 2.56 (n = 8) fold.

System: GPR41
Experiment: as above
Format: cell-based
Conditions: ratio of RLU of FSK treated well to untreated well
How it was run: as §1

In order of falling “Fold Signal Change” value:
1. B7  220.1 fold
2. B6  194.6 fold
3. B9  165.7 fold
4. B11  153.1 fold
5. B10  141.7 fold
6. B8  133.9 fold
7. B3  93.6 fold
8. B1  89.7 fold
9. B5  87.6 fold
10. B4  85.2 fold

B2 was tested, and the “Fold Signal Change” value was 9.48 (n = 8) fold.
